In patent US7803382B2, “Method for inducing immune response to NY-CO-58” (Ludwig Institute for Cancer Research Ltd., priority 2001, dated 2010):

Tested on: sera from colon cancer patients
Test: Spot assay: reactivity of serologically defined colon cancer antigens with colon cancer patient sera
Type: binding, human
Conditions: reactive sera/sera tested; includes autologous where applicable; sera 1:200
Method: Serum samples from patients with colon cancer were screened using a modification of the plaque assay, termed a spot assay. In this method, 80×120 mm nitrocellulose membranes were precoated with a film of NZY/0.7% Agarose/2.5 mM IPTG and placed on a reservoir layer of NZY/0.7% Agarose in a 86×128 mm Omni Tray (Nalge Nunc International Corp., Naperville, Ill.). Approximately 1.0×10^5 pfU of monoclonal phage encoding individual serologically defined colon cancer antigens, in a volume of 20 μl, were mixed with 20 μl of exponentially growing E. coli XL-1 Blue MRF and spotted (0.7-μl aliquots) on the precoated nitrocellulose membranes. Membranes were incubated for 15 hours at 37° C. A total of 75 different serologically defined colon cancer antigens were spotted in duplicate per nitrocellulose membrane. The agarose film was then removed from the membrane and the filters were processed for reactivity with individual serum samples (1:200 dilution), as described in Scanlan, et al., Int. J. Cancer 76:652-658 (1998) and Scanlan, et al., Int. J. Cancer 83:456-64, (1999).

Molecule	Reactivity of individual antigens
CO-61 (HIP1R): serologically defined colon cancer antigen, protein SEQ ID NO:19 (protein, listed as Homo sapiens) MFDYMDCELKLSESVFRQLNTAIAVSQMSSGQCRLAPLIQVIQDCSHLYHYTVKLLFKLHSCLPADTLQGHRDRFHEQFHSLRNFFRRASDMLYFKRLIQIPRLPEGPPNFLRASALAEHIKPVVVIPEEAPEDEEPENLIEISTGPPAGEPVVVADLFDQTFGPPNGSVKDDRDLQIESLKREVEMLRSELEKIKLEAQRYIAQLKSQVNALEGELEEQRKQKQKALVDNEQLRHELAQLRAAQLEGERSQGLREEAERKASATEARYNKLKEKHSELVHVHAELLRKNADTAKQLTVTQQSQEEVARVKEQLAFQVEQVKRESELKLEEKSDQLEKLKRELEAKAGELARAQEALSHTEQSKSELSSRLDTLSAEKDALSGAVRQREADLLAAQSLVRETEAALSREQQRSSQEQGELQGRLAERESQEQGLRQRLLDEQFAVLRGAAAEAAGILQDAVSKLDDPLHLRCTSSPDYLVSRAQEALDAVSTLEEGHAQYLTSLADASALVAALTRFSHLAADTIINGGATSHLAPTDPADRLIDTCRECGARALELMGQLQDQQALRHMQASLVRTPLQGILQLGQELKPKSLDVRQEELGAVVDKEMAATSAAIEDAVRRIEDMMNQARHASSGVKLEVNERILNSCTDLMKAIRLLVTTSTSLQKEIVESGRGAATQQEFYAKNSRWTEGLISASKAVGWGATQLVEAADKVVLHTGKYEELIVCSHEIAASTAQLVAASKVKANKHSPHLSRLQECSRTVNERAANVVASTKSGQEQIEDRDTMDFSGLSLIKLKKQEMETQVRVLELEKTLEAERMRLGELRKQHYVLAGASGSPGEEVAIRPSTAPRSVTTKKPPLAQKPSVAPRQDHQLDKKDGIYPAQLVNY	5/75
CO-94 (seb4D): serologically defined colon cancer antigen, protein SEQ ID NO:17 (protein, listed as Homo sapiens, X: residue not identified in the source) RPSLPRALPAAPHERSPARPGSVGGGAPPMLLQPAPCAPSAGFPRPLAAPGAMHLFAEGHHVHQDLRGRPAVPHYRRLAQEVLXGLRRHLRRPWSSPTAXRASPAATAS	4/75
CO-9 (HDAC 5): serologically defined colon cancer antigen, protein SEQ ID NO:18 (protein, listed as Homo sapiens) EFLLSKSKEPTPGGLNHSLPQHPKCWGAHHASLDQSSPPQSGPPGTPPSYKLPLPGPYDSRDDFPLRKTASEPNLKVRSRLKQKVAERRSSPLLRRKDGTVISTFKKRAVEITGAGPGASSVCNSAPGSGPSSPNSSHSTIAENGFTGSVPNIPTEMLPQHRALPLDSSPNQFSLYTSPSLPNISLGLQATVTVTNSHLTASPKLSTQQEAERQALQSLRQGGTLTGKFMSTSSIPGCLLGVALEGDGSPHGHASLLQHVLLLEQARQQSTLIAVPLHGQSPLVTGERVATSMRTVGKLPRHRPLSRTQSSPLPQSPQALQQLVMQQQHQQFLEKQKQQQLQLGKILTKTGELPRQPTTHPEETEEELTEQQEVLLGEGALTMPREGSTESESTQEDLEEEDEEEDGEEEEDCIQVKDEEGESGAEEGPDLEEPGAGYKKLFSDAQPLQPLQVYQAPLSLATVPHQALGRTQSSPAAPGGMKNPPDQPVKHLFTTSVVYDTFMLKHQCMCGNTHVHPEHAGRIQSIWSRLQETGLLSKCERIRGRKATLDEIQTVHSEYHTLLYGTSPLNRQKLDSKKLLGPISQKMYAVLPCGGIGVDSDTVWNEMHSSSAVRMAVGCLLELAFKVAAGELKNGFAIIRPPGHHAEESTAMGFCFFNSVAITAKLLQQKLNVGKVLIVDWDIHHGNGTQQAFYNDPSVLYISLHRYDNGNFFPGSGAPEEVGGGPGVGYNVNVAWTGGVDPPIGDVEYLTAFRTVVMPIAHEFSPDVVLVSAGFDAVEGHLSPLGGYSVTARCFGHLTRQLMTLAGGRVVLALEGGHDLTAICDASEACVSALLSVKLQPLDEAVLQQKPNINAVATLEKVIEIQSKHWSCVQKFAAGLGRSLRGAQAGETEEAEM	3/76
SSX-2: serologically defined colon cancer antigen, protein SEQ ID NO:28 (protein, listed as Homo sapiens) MNGDDAFARRPTVGAQIPEKIQKAFDDIAKYFSKEEWEKMKASEKIFYVYMKRKYEAMTKLGFKATLPPFMCNKRAEDFQGNDLDNDPNRGNQVERPQMTFGRLQGISPKIMPKKPAEEGNDSEEVPEASGPQNDGKELCPPGKPTTSEKIHERSGPKRGEHAWTHRLRERKQLVIYEEISDPEEDDE	2/75
CO-45 (Tudor like): serologically defined colon cancer antigen, protein SEQ ID NO:21 (protein, listed as Homo sapiens) RVKATLSERKIGDSCDKDLPLKFCEFPQKTIMPGFKTTVYVSHINDLSDFYVQLIEDEAEISHLSERLNSVKTRPEYYVGPPLQRGDMICAVFPEDNLWYRAVIKEQQPNDLLSVQFIDYGNVSVVHTNKIGRLDLVNAILPGLCIHCSLQGFEVPDNKNSKKMMHYFSQRTSEAAIRCEFVKFQDRWEVILADEHGIIADDMISRYALSEKSQVELSTQVIKSASSKSVNKSDIDTSVFLNWYNPEKKMIRAYATVIDGPEYFWCQFADTEKLQCLEVEVQTAGEQVADRRNCIPCPYIGDPCIVRYREDGHYYRALITNICEDYLVSVRLVDFGNIEDCVDPKALWAIPSELLSVPMQAFPCCLSGFNISEGLCSQEGNDYFYEIITEDVLEITILEIRRDVCDIPLAIVDLKSKGKSINEKMEKYSKTGIKSALPYENIDSEIKQTLGSYNLDVGLKKLSNKAVQNKIYMEQQTDELAEITEKDVNIIGTKPSNFRDPKTDNICEGFENPCKDKIDTEELEGELECHLVDKAEFDDKYLITGFNTLLPHANETKEILELNSLEVPLSPDDESKEFLELESIELQNSLVVDEEKGELSPVPPNVPLSQECVTKGAMELFTLQLPLSCEAEKQPELELPTAQLPLDDKMDPLSLGVSQKAQESMCTEDMRKSSCVESFDDQRRMSLHLHGADCDPKTQNEMNICEEEFVEYKNRDAISALMPFSLRKKAVMEASTIMVYQIIFQNYRTPTL	4/76
CO-42 (TRIP4): serologically defined colon cancer antigen, protein SEQ ID NO:22 (protein, listed as Homo sapiens) AEVKTPFDLAKAQENSNSVKKKTKFVNLYTRERQDRLAVLLPGRHPCDCLGQKHKLINNCLICGRIVCEQEGSGPCLFCGTLVCTHEEQDILQRDSNKSQKLLKKLMSGVENSGKVDISTKDLLPHQELRIKSGLEKAIKHKDKLLEFDRTSIRRTQVIDDESDYFASDSNQWLSKLERETLQKREEELRELRHASRLSKKVTIDFAGRKILEEENSLAEYHSRLDETIQAIANGTLNQPLTKLDRSSEEPLGVLVNPNMYQSPPQWLTTQVQPHRRRLSVLQDLD	7/76
CO-41 (MBD2): serologically defined colon cancer antigen, protein SEQ ID NO:23 (protein, listed as Homo sapiens) PSKLQKNKQRLRNDPLNQNKGKPDLNTTLPIRQTASIFKQPVTKVTNHPSNKVKSDPQRMNEQPRQLFWEKRLQGLSASDVTEQIIKTMELPKGLQGVGPGSNDETLLSAVASALHTSSAPITGQVSAAVEKNPAVWLNTSQPLCKAFIVTDEDIRKQEERVQQVRKKLEEALMADILSRAADTEEMDIEMDSGDEA	3/76
MAGE-3: serologically defined colon cancer antigen, protein SEQ ID NO:29 (protein, listed as Homo sapiens) MPLEQRSQHCKPEEGLEARGEALGLVGAQAPATEEQEAASSSSTLVEVTLGEVPAAESPDPPQSPQGASSLPTTMNYPLWSQSYEDSSNQEEEGPSTFPDLESEFQAALSRKVAELVHFLLLKYRAREPVTKAEMLGSVVGNWQYFFPVIFSKASSSLQLVFGIELMEVDPIGHLYIFATCLGLSYDGLLGDNQIMPKAGLLIIVLAIIAREGDCAPEEKIWEELSVLEVFEGREDSILGDPKKLLTQHFVQENYLEYRQVPGSDPACYEFLWGPRALVETSYVKVLHHMVKISGGPHISYPPLHEWVLREGEE	6/75
